Reference: patent US20210301005A1 (Genentech, published 2021)
Like-named read-outs stand apart in the source and are kept apart here.

Assays:
[1] = target: T1, human TGFβ2, mature receptor-binding domain (human, UniProt P09858 303-414 (pig entry), The mature TGFβ2 is a disulfide-linked homodimer of this 112-residue chain. The 4A11 epitope spans both monomers (p-1207).); assay: BIAcore T200
T1 construct: Peprotech; also called TGFb2
T1 sequence: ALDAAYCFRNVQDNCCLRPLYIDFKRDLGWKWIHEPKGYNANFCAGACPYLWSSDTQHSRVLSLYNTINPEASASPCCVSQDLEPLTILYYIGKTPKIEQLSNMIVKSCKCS
Method: (§1) For binding affinity determinations of all humanized 2A10 antibodies, Surface Plasmon Resonance (SPR) measurement with a BIAcore™-T200 instrument was used. Briefly, series S CM5 biosensor chip with protein A was first applied to capture each humanized 2A10 variant to achieve approximately 100 response units (RU) on each flow cell, following by injection of 3-fold serial dilutions of human TGFβ1, TGFβ2 or TGFβ3 (0.02 nM to 5 nM) in HBS-EP buffer (0.01M HEPES pH 7.4, 0.15M NaCl, 3 mM EDTA and 0.05% v/v surfactant P20) at 25° C. with a flow rate of 50 μl/min for kinetics measurement. Association rates (ko.) and dissociation rates (koff) were calculated using a simple one-to-one Langmuir binding model (BIAcore T200 evaluation software version 2.0) to determine the equilibrium dissociation constant (KD), which was calculated as the ratio koff/kₒₙ.
(§2) Binding affinity determinations of all humanized 4A11 antibodies were performed using SPR measurement with a BIAcore™-T200 instrument, as described above in Example 6 ([…]).

[2] = target: T2, human TGFβ3, mature dimeric form (human, UniProt P10600 301-412); assay: BIAcore T200
T2 construct: Peprotech, expressed in E. coli; also called TGFb3
T2 sequence: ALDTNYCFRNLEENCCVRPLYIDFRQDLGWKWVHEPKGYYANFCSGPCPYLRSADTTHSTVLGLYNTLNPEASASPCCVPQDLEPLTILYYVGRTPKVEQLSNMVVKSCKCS
Method: as §1, §2

[3] = target: T3, human TGFβ1, mature receptor-binding domain (human, UniProt P01137 279-390); assay: cell-based or functional assay
[4] = target: T1, human TGFβ2, mature receptor-binding …; assay: cell-based or functional assay
[5] = target: T2, human TGFβ3, mature dimeric form; assay: cell-based or functional assay
[6] = target: T1, human TGFβ2, mature receptor-binding …; assay: BIAcore T200; remark: listed apart in the source
Method: as §1

[7] = target: T2, human TGFβ3, mature dimeric form; assay: BIAcore T200; remark: listed apart in the source
Method: as §1

[8] = target: T3, human TGFβ1, mature receptor-binding …; assay: cell-based or functional assay; remark: listed apart in the source
[9] = target: T1, human TGFβ2, mature receptor-binding …; assay: cell-based or functional assay; remark: listed apart in the source
[10] = target: T2, human TGFβ3, mature dimeric form; assay: cell-based or functional assay; remark: listed apart in the source

T3 sequence (P01137 279-390 limits assumed): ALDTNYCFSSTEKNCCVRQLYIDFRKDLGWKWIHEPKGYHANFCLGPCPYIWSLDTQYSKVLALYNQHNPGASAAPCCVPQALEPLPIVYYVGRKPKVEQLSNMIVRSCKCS

B1: h4A11.v4 (antibody, human IgG1, kappa, N297G, V domains shown)
VH: EQQLQESGPGLVKPSETLSLTCTVTGFSLSSYTVNWVRQPAGKGLEWIGYISYGGSAYYASWANGRFTISKDSSKNQVSLKLSSVTAADTAVYFCARHMQVGGAPTGSMAAFDPWGPGTLVTVSS
VL: DAQLTQSPSSLSASVGDRVTITCQSSQSVYNNNYLSWFQQKPGKPPKLLIYGASTLTSGVPSRFSGSGSGTDFTLTISSLQPEDFATYYCAGGYSGSSDKYAFGGGTKVEIKR
Kd [1]: 0.01 nM | Kd [2]: 0.0101 nM | HEKBlue TGFβ blocking IC50 [3]: > 200 nM | HEKBlue TGFβ blocking IC50 [4]: 1.9 nM | HEKBlue TGFβ blocking IC50 [5]: 0.08 nM

B2: h2A10.v2.1 (antibody, human IgG1, kappa, N297G)
heavy: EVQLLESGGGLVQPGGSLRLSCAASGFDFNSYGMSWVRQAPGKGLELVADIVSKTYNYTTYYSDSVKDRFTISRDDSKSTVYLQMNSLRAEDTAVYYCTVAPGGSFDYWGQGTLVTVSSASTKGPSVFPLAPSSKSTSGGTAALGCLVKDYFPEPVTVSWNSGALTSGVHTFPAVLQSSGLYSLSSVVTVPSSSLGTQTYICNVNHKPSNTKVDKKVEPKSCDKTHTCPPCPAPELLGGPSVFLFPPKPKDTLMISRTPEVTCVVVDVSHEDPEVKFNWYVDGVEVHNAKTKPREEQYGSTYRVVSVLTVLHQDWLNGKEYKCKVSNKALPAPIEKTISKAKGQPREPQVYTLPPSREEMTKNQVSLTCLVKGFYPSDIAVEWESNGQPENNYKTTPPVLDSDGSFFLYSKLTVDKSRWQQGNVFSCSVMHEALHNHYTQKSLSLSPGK
light: DIQMTQSPSSLSASVGDRVTITCRASQSVSISRFNLMHWYQHKPGKQPKLLIYRASNLASGIPSRFSGSGSGTDFTLTISSLQPEDFATYYCQHSRESPWTFGGGTKVEIKRTVAAPSVFIFPPSDEQLKSGTASVVCLLNNFYPREAKVQWKVDNALQSGNSQESVTEQDSKDSTYSLSSTLTLSKADYEKHKVYACEVTHQGLSSPVTKSFNRGEC
Kd [6]: 0.238 nM | Kd [7]: 0.0031 nM | HEKBlue TGFβ blocking IC50 [8]: > 200 nM | HEKBlue TGFβ blocking IC50 [9]: > 200 nM | HEKBlue TGFβ blocking IC50 [10]: 0.01 nM

B3: h2A10.v2.8 (antibody, human IgG1, kappa, N297G, V domains shown)
VH: EVQLLESGGGLVQPGGSLRLSCAASGFDFNSYGMSWVRQAPGKGLELVADIVSKTYNYTTYYSDSVKDRFTISRDDSKNTVYLQMNSLRAEDTAVYYCTVAPGGSFDYWGQGTLVTVSS
VL: DIQLTQSPSSLSASVGDRVTITCRASQSVSISRFNLMHWYQHKPGKQPKLLIYRASNLASGIPSRFSGSGSGTDFTLTISSLQPEDFATYYCQHSRESPWTFGGGTKVEIKR
Kd [6]: 0.365 nM | Kd [7]: 0.0012 nM | HEKBlue TGFβ blocking IC50 [8]: > 200 nM | HEKBlue TGFβ blocking IC50 [9]: > 200 nM | HEKBlue TGFβ blocking IC50 [10]: 0.01 nM

B4: h2A10.v2.4 (antibody, human IgG1, kappa, N297G, V domains shown)
VH: EVQLLESGGGLVQPGGSLRLSCAASGFDFNSYGMSWVRQAPGKGLELVADIVSKTYNYTTYYSDSVKDRFTISRDDSKSTVYLQMNSLRAEDTAVYYCTVAPGGSFDYWGQGTLVTVSS
VL: DIQLTQSPSSLSASVGDRVTITCRASQSVSISRFNLMHWYQHKPGKQPKLLIYRASNLASGVPSRFSGSGSGTDFTLTISSLQPEDFATYYCQHSRESPWTFGGGTKVEIKR
Kd [6]: 0.19 nM | Kd [7]: 0.0021 nM | HEKBlue TGFβ blocking IC50 [8]: > 200 nM | HEKBlue TGFβ blocking IC50 [9]: > 200 nM | HEKBlue TGFβ blocking IC50 [10]: 0.01 nM

B5: h2A10.v2.2 (antibody, human IgG1, kappa, N297G, V domains shown)
VH: EVQLLESGGGLVQPGGSLRLSCAASGFDFNSYGMSWVRQAPGKGLELVADIVSKTYNYTTYYSDSVKDRFTISRDDSKSTVYLQMNSLRAEDTAVYYCTVAPGGSFDYWGQGTLVTVSS
VL: DIQLTQSPSSLSASVGDRVTITCRASQSVSISRFNLMHWYQQKPGKQPKLLIYRASNLASGIPSRFSGSGSGTDFTLTISSLQPEDFATYYCQHSRESPWTFGGGTKVEIKR
Kd [6]: 0.124 nM | Kd [7]: 0.0012 nM | HEKBlue TGFβ blocking IC50 [8]: > 200 nM | HEKBlue TGFβ blocking IC50 [9]: > 200 nM | HEKBlue TGFβ blocking IC50 [10]: 0.01 nM

B6: h2A10.v2.6 (antibody, human IgG1, kappa, N297G, V domains shown)
VH: EVQLLESGGGLVQPGGSLRLSCAASGFDFNSYGMSWVRQAPGKGLELVSDIVSKTYNYTTYYSDSVKDRFTISRDDSKSTVYLQMNSLRAEDTAVYYCTVAPGGSFDYWGQGTLVTVSS
VL: DIQLTQSPSSLSASVGDRVTITCRASQSVSISRFNLMHWYQHKPGKQPKLLIYRASNLASGIPSRFSGSGSGTDFTLTISSLQPEDFATYYCQHSRESPWTFGGGTKVEIKR
Kd [6]: 0.249 nM | Kd [7]: 0.0015 nM | HEKBlue TGFβ blocking IC50 [8]: > 200 nM | HEKBlue TGFβ blocking IC50 [9]: > 200 nM | HEKBlue TGFβ blocking IC50 [10]: 0.01 nM

B7: h2A10.v2.9 (antibody, human IgG1, kappa, N297G, V domains shown)
VH: EVQLLESGGGLVQPGGSLRLSCAASGFDFNSYGMSWVRQAPGKGLELVADIVSKTYNYTTYYSDSVKDRFTISRDDSKSTLYLQMNSLRAEDTAVYYCTVAPGGSFDYWGQGTLVTVSS
VL: DIQLTQSPSSLSASVGDRVTITCRASQSVSISRFNLMHWYQHKPGKQPKLLIYRASNLASGIPSRFSGSGSGTDFTLTISSLQPEDFATYYCQHSRESPWTFGGGTKVEIKR
Kd [6]: 0.768 nM | Kd [7]: 0.0007 nM | HEKBlue TGFβ blocking IC50 [8]: > 200 nM | HEKBlue TGFβ blocking IC50 [9]: > 200 nM | HEKBlue TGFβ blocking IC50 [10]: 0.01 nM

B8: h2A10.v2.3 (antibody, human IgG1, kappa, N297G, V domains shown)
VH: EVQLLESGGGLVQPGGSLRLSCAASGFDFNSYGMSWVRQAPGKGLELVADIVSKTYNYTTYYSDSVKDRFTISRDDSKSTVYLQMNSLRAEDTAVYYCTVAPGGSFDYWGQGTLVTVSS
VL: DIQLTQSPSSLSASVGDRVTITCRASQSVSISRFNLMHWYQHKPGKAPKLLIYRASNLASGIPSRFSGSGSGTDFTLTISSLQPEDFATYYCQHSRESPWTFGGGTKVEIKR
Kd [6]: 0.242 nM | Kd [7]: 0.0015 nM | HEKBlue TGFβ blocking IC50 [8]: > 200 nM | HEKBlue TGFβ blocking IC50 [9]: > 200 nM | HEKBlue TGFβ blocking IC50 [10]: 0.01 nM

B9: h4A11.v1 (antibody, human IgG1, kappa, N297G, V domains shown)
VH: EQQLVESGGGLVQPGGSLRLSCAVSGFSLSSYTVNWVRQAPGKGLEWIGYISYGGSAYYASWANGRFTISKDSAKNSVYLQMNSLRAEDTAVYFCARHMQVGGAPTGSMAAFDPWGPGTLVTVSS
VL: DAVLTQSPDSLAVSLGERATINCQSSQSVYNNNYLSWFQQKPGQPPKLLIYGASTLTSGVPDRFSGSGSGTDFTLTISSLQAEDVAVYYCAGGYSGSSDKYAFGGGTKVEIKR
Kd [1]: 0.0046 nM | Kd [2]: 0.0144 nM | HEKBlue TGFβ blocking IC50 [3]: > 200 nM | HEKBlue TGFβ blocking IC50 [4]: > 200 nM | HEKBlue TGFβ blocking IC50 [5]: > 200 nM

B10: h4A11.v2 (antibody, human IgG1, kappa, N297G, V domains shown)
VH: EQQLVESGGGLVQPGGSLRLSCAVSGFSLSSYTVNWVRQAPGKGLEWIGYISYGGSAYYASWANGRFTISKDSAKNSVYLQMNSLRAEDTAVYFCARHMQVGGAPTGSMAAFDPWGPGTLVTVSS
VL: DAQLTQSPSSLSASVGDRVTITCQSSQSVYNNNYLSWFQQKPGKPPKLLIYGASTLTSGVPSRFSGSGSGTDFTLTISSLQPEDFATYYCAGGYSGSSDKYAFGGGTKVEIKR
Kd [1]: 0.0014 nM | Kd [2]: 0.0133 nM | HEKBlue TGFβ blocking IC50 [3]: > 200 nM | HEKBlue TGFβ blocking IC50 [4]: > 200 nM | HEKBlue TGFβ blocking IC50 [5]: > 200 nM

B11: h4A11.v3 (antibody, human IgG1, kappa, N297G, V domains shown)
VH: EQQLQESGPGLVKPSETLSLTCTVTGFSLSSYTVNWVRQPAGKGLEWIGYISYGGSAYYASWANGRFTISKDSSKNQVSLKLSSVTAADTAVYFCARHMQVGGAPTGSMAAFDPWGPGTLVTVSS
VL: DAVLTQSPDSLAVSLGERATINCQSSQSVYNNNYLSWFQQKPGQPPKLLIYGASTLTSGVPDRFSGSGSGTDFTLTISSLQAEDVAVYYCAGGYSGSSDKYAFGGGTKVEIKR
Kd [1]: 0.0096 nM | Kd [2]: 0.0121 nM | HEKBlue TGFβ blocking IC50 [3]: > 200 nM | HEKBlue TGFβ blocking IC50 [4]: 3.9 nM | HEKBlue TGFβ blocking IC50 [5]: 0.23 nM

B12: h4A11.v5 (antibody, human IgG1, kappa, N297G, V domains shown)
VH: EQQLVESGGGLVQPGGSLRLSCAVSGFSLSSYTVNWVRQAPGKGLEWIGYISYGGSAYYASWANGRFTISKDSAKNSVYLQMNSLRAEDTAVYFCARHMQVGGAPTGSMAAFDPWGPGTLVTVSS
VL: EAVLTQSPGTLSLSPGERATLSCQSSQSVYNNNYLSWFQQKPGQPPRLLIYGASTLTSGVPDRFSGSGSGTDFTLTISRLEPEDFAVYYCAGGYSGSSDKYAFGGGTKVEIKR
Kd [1]: 0.0121 nM | Kd [2]: 0.0139 nM | HEKBlue TGFβ blocking IC50 [3]: > 200 nM | HEKBlue TGFβ blocking IC50 [4]: > 200 nM | HEKBlue TGFβ blocking IC50 [5]: 1.4 nM

B13: h4A11.v6 (antibody, human IgG1, kappa, N297G, V domains shown)
VH: EQQLVESGGGLVQPGGSLRLSCAVSGFSLSSYTVNWVRQAPGKGLEWIGYISYGGSAYYASWANGRFTISKDSAKNSVYLQMNSLRAEDTAVYFCARHMQVGGAPTGSMAAFDPWGPGTLVTVSS
VL: DAVLTQTPLSSPVTLGQPASISCQSSQSVYNNNYLSWFQQRPGQPPRLLIYGASTLTSGVPDRFSGSGAGTDFTLKISRVEAEDVGVYYCAGGYSGSSDKYAFGGGTKVEIKR
Kd [1]: 0.0084 nM | Kd [2]: 0.0125 nM | HEKBlue TGFβ blocking IC50 [3]: > 200 nM | HEKBlue TGFβ blocking IC50 [4]: > 200 nM | HEKBlue TGFβ blocking IC50 [5]: 6.7 nM
